Reference: the supplement of paper PMC10567573

B1: MATN2 (parent)
chain: TDDSYSCHCLKGFTLNPDKKTCRR

Variants of: B1
Assay: protein stability index of a GFP-peptide fusion (GPS, HEK-293T) (PSI 1-6); higher = more stable
Conditions: c terminus: a fixed tail appended
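Note: lentivirally expressed fusions sorted by FACS into six bins by GFP to DsRed ratio, PSI derived from sequencing read proportions per bin multiplied by bin number.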

Row | Variant | protein stability index
1 | TDDSYSCHCLKGFTLNPDKKTCHR [R23H] | 1.91
2 | TDDSYSCHCLKGFTLNPDKKTCAR [R23A] | 2.41
3 | TDDSYSCHCLKGFTLNPDKKTIRR [C22I] | 2.09
4 | TDDSYSCHCLKGFTLNPDKKTDRR [C22D] | 2.69
5 | TDDAYSCHCLKGFTLNPDKKTCRR [S4A] | 1.34
6 | TDDGYSCHCLKGFTLNPDKKTCRR [S4G] | 1.88
7 | TDDSYSTHCLKGFTLNPDKKTCRR [C7T] | 4.54
8 | TDDSYSEHCLKGFTLNPDKKTCRR [C7E] | 4.61
9 | TDDSYSKHCLKGFTLNPDKKTCRR [C7K] | 4.21
10 | TDDSYSCHCLKGFTLAPDKKTCRR [N16A] | 2.68
11 | TDDSYSCHCLKGFTLEPDKKTCRR [N16E] | 2.06
12 | TDDSYSCHCLKGFTLMPDKKTCRR [N16M] | 2.65
13 | FDDSYSCHCLKGFTLNPDKKTCRR [T1F] | 2.21
14 | TDDSYSCNCLKGFTLNPDKKTCRR [H8N] | 1.91
15 | TDDSYSCHILKGFTLNPDKKTCRR [C9I] | 3.77
16 | TDDSYSCHYLKGFTLNPDKKTCRR [C9Y] | 3.88
17 | TDDSYSCHCLKGFTLNPHKKTCRR [D18H] | 2.83
18 | TDDSYSCHCLKGFDLNPDKKTCRR [T14D] | 2.14

Row | Variant | protein stability index
19 | TDDSYSCHCLKGSTLNPDKKTCRR [F13S] | 2.21
20 | TDDSYSCHCLKGGTLNPDKKTCRR [F13G] | 2.88
21 | TADSYSCHCLKGFTLNPDKKTCRR [D2A] | 1.88
22 | TGDSYSCHCLKGFTLNPDKKTCRR [D2G] | 2.98
23 | THDSYSCHCLKGFTLNPDKKTCRR [D2H] | 2.15
24 | TDDSYSCHCLKGFTLNPDDKTCRR [K19D] | 2.37
25 | TDDSYSCHCLKIFTLNPDKKTCRR [G12I] | 1.78
26 | TDDSYSCHCLKQFTLNPDKKTCRR [G12Q] | 2.85
27 | TDDSYSCHCLKGFTLNPDKKLCRR [T21L] | 2.15
28 | TDDSYSCHCLKGFTLNPDKKMCRR [T21M] | 2.57
29 | TDDSYVCHCLKGFTLNPDKKTCRR [S6V] | 3.42
30 | TDDSYQCHCLKGFTLNPDKKTCRR [S6Q] | 1.76
31 | TDESYSCHCLKGFTLNPDKKTCRR [D3E] | 1.73
32 | TDHSYSCHCLKGFTLNPDKKTCRR [D3H] | 2.15
33 | TDDSYSCHCLHGFTLNPDKKTCRR [K11H] | 2.49
34 | TDDSYSCHCLKGFTLNPDKKTCRG [R24G] | 3.12
35 | TDDSYSCHCLKGFTLNPDKKTCRY [R24Y] | 2.6
36 | TDDSYSCHCLKGFTLNPDKKTCRM [R24M] | 2.19
